The nature of this data set: soluble on expression in E. coli; label from the status in PepcDB or PDB records.
Consider “MVNQLIEPYGGTLVNLIDPEKREALKHEALSLPSLDLDWQQQCELEMLMTGAYSPLTGFMTRAQCARVESAQQLDDGSFWPSPITLTSRDRALADRRPGERLALRDGEGYMLAILTLSDVWKDGERWHLAGEVEGAALPPHPDFVSLRATPAELRALFVRRGWRRIIAWQARQPMHRAQYEFCLKSAIENEANLLLHPQVGGDITEAPAYFGLVRSFLAIRDRFPAATTQLSLLPAPPPEASGRALLLRAIVARNFGCSLLIAGGEHQPDGGDCRRGEDLTQNRVDPSVAERAEKIGVRLIAYPRMVYVEDRAEHLPEAEAPQGARLLTLSGEEFQRRMRAGLKIPEWYSFPEVLAELHRQTPPRERQGFTVFFTGLSGAGKSTLARALAARLMEMGGRCVTLLDGDIVRRHLSSELGFSKAHRDVNVRRIGFVASEITKNRGIAICAPIAPYRQTRRDVRAMIEAVGGFVEIHVATPIETCESRDRKGLYAKARAGLIPEFTGVSDPYEVPETPELAIDTTGLAIDEAVQQILLKLEHEGYLRLEHHHHHH”, for which the “soluble on expression in E. coli” value is “soluble”. For “MGSDKIHHHHHHMLGDLLTTFFEVARQGSITTAARQLGVSQPTVTARIRQLEDVYGVELFYRRASRVDLSDVGVALMPVVEQLMQQESNADYLLRNAGNLRFGNLRIGATGPYYILRSVAAFRQRYPAVEVSIEIGNSQQMIEALLEYRIDAAVSSHAVDDSRLARIRLASDPMVLVVHPEHPFARMPHIDIARLAECHLLVREHGSMTRQATEAALAACGQELPRHMVIGSREAIYEAIRQNIGASVVPAGEVPRDPSLRIVPFAQRPPVIHEYLYCLESRRHTRLVGALLECVESLAPHQQAQAA” the value was “not soluble”; for “MGSDKIHHHHHHVPRVRTVKEDHRAGVWCARGMTGLLRRLHAVLDEFNAAYPWDHNAYYHRWILRQLPPRFGRALDAGSGSGDLARLLAGRADRVCGIDIDPVITARARELTDPAAPVVFTVGDVLTDTPAGPYDVVTCVAAVHHMPLAEALTCFRDLLAPGGTLVVVGLYRAHDPIDVLLDGVSVVLNPLIGWVRHRGRRAPRPVSMTAVTTPATMTFAEIVAEARRVLPRARLRRRLLWRYTLVWRKP”, “not soluble”. The entry for “SMKEPSQQRVKRWGFGMDEALKDPVGREQFLKFLESEFSSENLRFWLAVEDLKKRPIKEVPSRVQEIWQEFLAPGAPSAINLDSKSYDKTTHNVKEPGRYTFEDAQEHIYKLMKSDSYPRFIRSSAYQELLQAKKKSGNSMDRRTS” is “soluble”; for “MAHHHHHHMWQTVVRRYRLQPTSLAAFLESNCMVAKPPTAALHSDSNLVVAETNSLSIFENLAAEESLIRGLSLDTKQRLLLFYVNRPCVVVGRNQNIFQEVSLRRAAADGVCVARRASGGGAVFHDEGNLCFSFITHRTRYAPEKTIQLVRLGLCASYAIDPARLTTTGRHDLFLDGRKITGSAMRVQRDIAYHHCTLLVDTPHASVGRYLRPEGDYVAFKTSSVGSVRSPVTSLAESGCIADGPGAVAALKGNMADFFLAEGDRVLNAATPWELDAVELRQRFTTARHRCANAPLFALDVVGAVAADMPFIEREGRQPARGDAATLGEAVHKAASKEWAYAMPTFTSTVFLSDSELRRRLKTLSVRQHVALLCSLAEEELLAVLQRCVLEGSEGPEAVAGTEAGLHLVTTVEHRLVTSVVVRRVAPTTATASAVAPSSASSGGWVQRYLSALLVGHPCDAAIEGLECVGDTTAVVQGLVHEAGSLCPDLPDAVGDAALLMVARVLLDVWRDKNVFDIAT” it is “not soluble”; for “MGHHHHHHSHMLEILYQDEWLVAVNKPSGWLVHRSWLDRDEKVVVMQTVRDQIGQHVFTAHRLDRPTSGVLLMGLSSEAGRLLAQQFEQHQIQKRYHAIVRGWLMEEAVLDYPLVEELDKIADKFAREDKGPQPAVTHYRGLATVEMPVATGRYPTTRYGLVELEPKTGRKHQLRRHLAHLRHPIIGDSKHGDLRQNRSGAEHFGLQRLMLHASQLSLTHPFTGEPLTIHAGLDDTWMQALSQFGWRGLLPENERVEFSAPSGQDGEISS” it is “soluble”.

Turning to “MAHHHHHHMPRVQLFIDNGGYSVKALYLPASADTSNRSAATHASALTSSSTHGEAAATAATVAPAPKVLVVPNCVGAAVYAGTGIMGDQLDHLPHYHGLMVRRPVDRGFVVDGGLQARVWEHVLQHFSIESEEEVDVWLVVPFAAPKAVAQLLWLLCTRSFRFGSVTVVSSSFMSLIAYKFARGASAPSSAARKRPRSTVDTDAQESPGCSGSSATGGGMAIMVDVGFSATTVVPYVNYIPVYSSVVRLDVGGKVLTNRLKEYISFSQMNVIEDTWLINHVKEQCCVVARHPRRSLQRYAALWKGRTRDEVEAAAGALSTLRREDGGSGDGQASRSQRPGAPVAGVLTSPDVPIRYYLPTIPALLPLGVLEAELPSRLPKTSGVDAAALQHLLLCQERFLIPELLFTPADVGINQQGVAQAITEGIFQRGLLQHLTKLLRPLLLHNVCVYGGTASQPNFRDRLEAEVAAVAPQSPDCDADLDLKDSKRSSSSSRHGATEACADRTTCLSATPALPEFLLKAGGASTDLSLQPLLGAWCLLSATVDSGSNGGASQRELLRLRALVHERSGIELQHPPAGRVTVETFQHALERML”, the “soluble on expression in E. coli” value is “not soluble”. The entry for “MGSDKIHHHHHHMTPVLSLDMEDPIRFIDENGSFEVVKVGHNLAIHGKKIFDELAKRNLKIILDLKFCDIPSTVERSIKSWDHPAIIGFTVHSCAGYESVERALSATDKHVFVVVKLTSMEGSLEDYMDRIEKLNKLGCDFVLPGPWAKALREKIKGKILVPGIRMEVKADDQKDVVTLEEMKGIANFAVLGREIYLSENPREKIKRIKEMRL” is “soluble”; for “MTDEKKKGVIFDIQRWSLHDGPGIRTNVFFKGCPLSCQWCSNPESQEFCREPALFGDKCIHCLSCVEHCPHGAIHTSDPWIRLDYEICRGRCSRGAEQENAFCCTKACYAQALTVMGEVMTADMVLEEVMRDEGIYRSSGGGVTMTGGEPLAQPEFLLELLTAAKERGLHTVMESSMFAEWDKIQACLPYLDVLFMDMKLLPEEKHVKYTGVSNQIILDNIRRAAAYARTHRLELAVRTPVIPGINDTSGDIAAMADWIKKHLPGVERYELLPYHRLGRGKYRNIGREYQLGDIVPPSKEKMKELEAVVSKLGLRRE” it is “not soluble”; for “MSKYLHSEKAYLDLINAVKDKFNYKKSVVPYIIYFLLKTGMRYGELIALTWEDIDFDKGIFKTYRRFNSETSQFVPPKNKTSIRIVPVDNECLEILKNLKIEQNQSNKELGLQNTNNMVFQHFGYPNSVPSTNGTNKVLRGIVQELNIEPIITTKGARHTYGSFLWHRGYDLGIIAKILGHKDISMLIEVYGHTLEEKIQEEYNEIKQLWLEHHHHHH” it is “soluble”. “MAKVLVLNASYEPLNITSWQRAVVLLIKGKAEQVEHNGKMVYNNFPLPTVIRLRHYVVTPYKEIPLTRRNILHRDGHSCQYCGYTGDELTLDHVIPKSRGGGETWENIVTACVRCNVKKGNRTPKEANMPLRQTPRRPISSLYFEVTKHVRTGTHQEWRKYVIGALEHHHHHH”: the “soluble on expression in E. coli” value is reported as “not soluble”. For “VKLAAGMGVMSDLEKKFIELEAKLVAQPAGQAMPGKSNIFANNEAWRQEMLKQDPEFFNRLANGQSPEYLWIGCADSRVPANQLLDLPAGEVFVHRNIANQCIHSDISFLSVLQYAVQYLKVKHILVCGHYGCGGAKAALGDSRLGLIDNWLRHIRDVRRMNAKYLDKCKDGDEELNRLIELNVLEQVHNVCATSIVQDAWDAGQELTVQGVVYGVGDGKLRDLGVVVNSSDDISKFYRTKSDSGALKAGNPNAPLVQVTKGGESELDSTMEKLTAELVQQTPGKLKEGANRVFVNNENWRQKMLKQDPQFFSNLAHTQTPEILWIGCADSRVPANQIINLPAGEVFVHRNIANQCIHSDMSFLSVLQYAVQYLKVKRVVVCGHYACGGCAAALGDSRLGLIDNWLRHIRDVRRHNQAELSRITDPKDSLNRLIEINVLEQMHNVCATSIVQDAWDAGQELEVQGVVYGVGDGKLRDMGVVAKANDDIGQIFRTKQ” the value was “soluble”; for “MLNDLYEEIKLRKTQPREGSYTNYLFDKGLDKILKKVGEEATEVVIAAKNDNQELIAEVSDLAYHLLVLLAEKNIPLVAIQTELQKREGKLSTTRDRKEINDL”, “not soluble”; for “MMNADCKTAFGAIEESLLWSAEQRAASLAATLACRPDEGPVWIFGYGSLMWNPALEFTESCTGTLVGWHRAFCLRLTAGRGTAHQPGRMLALKEGGRTTGVAYRLPEETLEQELTLLWKREMITGCYLPTWCQLDLDDGRTVNAIVFIMDPRHPEYESDTRAQVIAPLIAAASGPLGTNAQYLFSLEQELIKLGMQDDGLNDLLVSVKKLLAENYPDGVLRPGFALEHHHHHH”, “soluble”.

The values are drawn from the DeepSol protein solubility set.
